Data as given in publication PMC2615553 (Immunity, 2008).

Target: T1, plexinD1-Fc (ectodomain of mouse plexinD1 as C-terminal Fc-fusion construct) (mouse, UniProt Q3UH93 49-1271)
T1 sequence (looked up): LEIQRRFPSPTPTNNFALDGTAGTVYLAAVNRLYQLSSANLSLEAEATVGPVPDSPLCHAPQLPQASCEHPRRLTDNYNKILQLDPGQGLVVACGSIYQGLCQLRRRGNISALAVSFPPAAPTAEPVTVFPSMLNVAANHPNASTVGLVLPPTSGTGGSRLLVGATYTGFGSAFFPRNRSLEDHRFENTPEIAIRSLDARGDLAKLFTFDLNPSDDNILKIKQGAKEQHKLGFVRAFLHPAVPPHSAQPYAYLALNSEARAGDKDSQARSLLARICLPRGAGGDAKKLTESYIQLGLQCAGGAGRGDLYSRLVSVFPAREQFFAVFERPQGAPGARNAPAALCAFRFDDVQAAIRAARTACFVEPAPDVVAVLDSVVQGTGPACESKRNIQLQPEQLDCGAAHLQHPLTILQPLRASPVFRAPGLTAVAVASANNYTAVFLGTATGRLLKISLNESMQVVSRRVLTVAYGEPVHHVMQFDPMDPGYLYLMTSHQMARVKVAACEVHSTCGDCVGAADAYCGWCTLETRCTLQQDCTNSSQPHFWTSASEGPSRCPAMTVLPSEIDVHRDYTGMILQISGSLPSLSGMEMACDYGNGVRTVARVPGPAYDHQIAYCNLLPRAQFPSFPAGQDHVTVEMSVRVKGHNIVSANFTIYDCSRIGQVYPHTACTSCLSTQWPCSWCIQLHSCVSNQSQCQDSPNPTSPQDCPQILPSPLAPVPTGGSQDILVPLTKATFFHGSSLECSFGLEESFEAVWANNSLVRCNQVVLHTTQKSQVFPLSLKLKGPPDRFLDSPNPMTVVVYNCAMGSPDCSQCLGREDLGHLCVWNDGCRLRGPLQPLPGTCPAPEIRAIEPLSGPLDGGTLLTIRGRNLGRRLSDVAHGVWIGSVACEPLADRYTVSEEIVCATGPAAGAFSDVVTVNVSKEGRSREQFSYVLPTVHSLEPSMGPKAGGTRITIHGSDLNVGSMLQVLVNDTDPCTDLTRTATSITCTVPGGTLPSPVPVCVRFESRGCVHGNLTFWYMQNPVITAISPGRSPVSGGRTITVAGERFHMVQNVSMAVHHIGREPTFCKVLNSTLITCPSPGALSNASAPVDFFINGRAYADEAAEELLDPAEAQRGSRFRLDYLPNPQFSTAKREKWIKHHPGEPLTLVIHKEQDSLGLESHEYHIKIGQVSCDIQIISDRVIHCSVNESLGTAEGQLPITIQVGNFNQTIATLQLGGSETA
Experiment: SPR

Kd: 43.4 nM
B1: sema3E-Fc (semaphorin 3E as C-terminal Fc-fusion construct) (Fc fusion, UniProt P70275 26-775, looked up)
chain: ANPSYPRLRLSHKELLELNRTSIFQSPLGFLDLHTMLLDEYQERLFVGGRDLVYSLNLERVSDGYREIYWPSTAVKVEECIMKGKDANECANYIRVLHHYNRTHLLTCATGAFDPHCAFIRVGHHSEEPLFHLESHRSERGRGRCPFDPNSSFVSTLVGNELFAGLYSDYWGRDSAIFRSMGKLGHIRTEHDDERLLKEPKFVGSYMIPDNEDRDDNKMYFFFTEKALEAENNAHTIYTRVGRLCVNDMGGQRILVNKWSTFLKARLVCSVPGMNGIDTYFDELEDVFLLPTRDPKNPVIFGLFNTTSNIFRGHAVCVYHMSSIREAFNGPYAHKEGPEYHWSLYEGKVPYPRPGSCASKVNGGKYGTTKDYPDDAIRFARMHPLMYQPIKPVHKKPILVKTDGKYNLRQLAVDRVEAEDGQYDVLFIGTDTGIVLKVITIYNQETEWMEEVILEELQIFKDPAPIISMEISSKRQQLYIGSASAVAQVRFHHCDMYGSACADCCLARDPYCAWDGISCSRYYPTGAHAKRRFRRQDVRHGNAAQQCFGQQFVGDALDRTEERLAYGIESNSTLLECTPRSLQAKVIWFVQKGRDVRKEEVKTDDRVVKMDLGLLFLRVRKSDAGTYFCQTVEHNFVHTVRKITLEVVEEHKVEGMFHKDHEEERHHKMPCPPLSGMSQGTKPWYKEFLQLIGYSNFQRVEEYCEKVWCTDKKRKKLKMSPSKWKYANPQEKRLRSKAEHFRLPRHTLLS
